4 molecules from US20230088269A1 (ARGENX BVBA, published 2023) can be followed below.

The target in test [1] is T1, recombinant mouse IL22R (monomeric, R&D Systems cat 4248-MR) (mouse, UniProt Q80XZ4 16-230).
T1 construct: extracellular domain; also called murine IL-22R; mIL22R
T1 sequence (looked up): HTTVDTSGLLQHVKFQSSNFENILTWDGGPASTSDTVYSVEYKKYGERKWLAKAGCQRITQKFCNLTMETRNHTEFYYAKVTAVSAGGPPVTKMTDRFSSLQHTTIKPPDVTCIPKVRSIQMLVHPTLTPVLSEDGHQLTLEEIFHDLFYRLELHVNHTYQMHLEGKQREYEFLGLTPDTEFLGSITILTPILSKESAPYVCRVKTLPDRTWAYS
Description: summary table of cross-reactivity, mAb, column m = mouse.

The target in test [2] is T2, human IL-22R expressed on cells (BW-hIL22R, Baf3-hIL22R/IL20Rb, transfected HEK, primary human skin cells) (human, UniProt Q8N6P7 16-574).
T2 sequence: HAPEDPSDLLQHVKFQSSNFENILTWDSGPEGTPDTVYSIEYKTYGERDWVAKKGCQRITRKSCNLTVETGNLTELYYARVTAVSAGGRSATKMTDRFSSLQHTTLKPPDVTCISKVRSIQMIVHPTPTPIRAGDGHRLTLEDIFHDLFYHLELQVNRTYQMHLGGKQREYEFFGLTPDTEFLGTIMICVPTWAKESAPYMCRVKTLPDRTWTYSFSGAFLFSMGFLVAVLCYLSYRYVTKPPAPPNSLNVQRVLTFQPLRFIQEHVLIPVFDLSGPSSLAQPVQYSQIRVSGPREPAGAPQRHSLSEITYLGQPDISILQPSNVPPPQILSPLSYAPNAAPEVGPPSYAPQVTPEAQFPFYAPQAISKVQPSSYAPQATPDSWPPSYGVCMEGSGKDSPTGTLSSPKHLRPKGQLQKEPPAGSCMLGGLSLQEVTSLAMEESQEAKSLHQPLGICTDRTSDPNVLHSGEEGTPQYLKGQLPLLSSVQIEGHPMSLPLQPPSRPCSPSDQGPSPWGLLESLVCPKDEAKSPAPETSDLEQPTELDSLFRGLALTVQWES
Put plainly: cell-based or functional assay.

Test [3] deals with T2, human IL-22R expressed on cells …. Put plainly: cell-based or functional assay. This is another data set of the same source.
Test [4] shares this target. Put plainly: cell-based or functional assay. The source holds these as a separate data set.
For test [5] the target is unchanged. Description: cell-based or functional assay. The source holds these as a separate data set.
For test [6], the target named is T3, cynomolgus monkey IL-22R in ex vivo skin biopsies (cynomolgus monkey, UniProt A0A2K5TKX9 16-573).
T3 sequence: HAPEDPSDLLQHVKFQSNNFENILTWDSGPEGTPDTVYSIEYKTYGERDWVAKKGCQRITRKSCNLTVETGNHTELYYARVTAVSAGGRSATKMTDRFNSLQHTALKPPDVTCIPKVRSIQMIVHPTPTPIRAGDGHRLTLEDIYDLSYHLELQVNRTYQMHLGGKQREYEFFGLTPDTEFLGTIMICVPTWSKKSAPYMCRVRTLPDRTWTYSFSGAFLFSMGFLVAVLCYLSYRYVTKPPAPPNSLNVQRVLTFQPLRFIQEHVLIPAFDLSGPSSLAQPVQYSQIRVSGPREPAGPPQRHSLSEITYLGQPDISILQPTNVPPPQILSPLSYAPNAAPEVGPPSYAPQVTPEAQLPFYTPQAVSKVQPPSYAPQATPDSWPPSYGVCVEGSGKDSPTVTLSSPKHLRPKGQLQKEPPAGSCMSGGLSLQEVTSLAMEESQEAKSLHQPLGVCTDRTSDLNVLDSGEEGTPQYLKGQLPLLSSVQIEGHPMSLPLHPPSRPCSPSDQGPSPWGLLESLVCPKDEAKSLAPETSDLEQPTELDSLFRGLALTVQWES
Description: cell-based or functional assay.

The target in test [7] is T4, recombinant human IL-22R (R&D Systems / Biotechne 2770-LR) (human, UniProt Q8N6P7 16-228).
T4 construct: Bought soluble recombinant protein (said to be 25 kDa); also called hIL22R; IL-22R1
T4 sequence: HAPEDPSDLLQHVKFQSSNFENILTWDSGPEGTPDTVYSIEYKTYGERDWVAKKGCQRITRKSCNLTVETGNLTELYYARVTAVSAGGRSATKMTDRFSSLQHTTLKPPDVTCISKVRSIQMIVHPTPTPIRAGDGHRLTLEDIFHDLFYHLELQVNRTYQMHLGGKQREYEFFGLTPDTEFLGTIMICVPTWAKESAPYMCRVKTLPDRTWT
Put plainly: SPR (Biacore), hIL22R on CM5 chip, mAb injected, 1:1 Langmuir. How it is done: (§1) The affinity of the 230C9 and 223G5 antibodies was measured using SPR ([…]). In brief, 250RU of human IL22R (Biotechne, 2770-LR) was coated onto a CM5 chip using standard methods (EDC coupling of IL22R at a concentration of 2 μg/ml in acetate buffer pH4.5). Then various concentrations of antibody were injected in HBSEP+ buffer (pH 7.4) for 2 minutes. The binding was monitored also during a 10 min washing (HBSEP+).
(In general: In SPR one partner is held on a chip, and binding of the other changes the refractive index at the surface.)

The target of test [8] is cynoIL22R_ECD-humanTM_humanICD chimera on transfected cells (cynomolgus monkey; human, UniProt Q8N6P7 229-574). Put plainly: cell-based or functional assay.
The target of test [9] is T2, human IL-22R expressed on cells …. Put plainly: cell-based or functional assay. This is another data set of the same source.
Test [10] has as its target rhesus IL22R ECD - human TM - human ICD chimera on transfected HEK cells (rhesus monkey; human, UniProt Q8N6P7 229-574). Description: cell-based or functional assay.
The target of test [11] is T4, recombinant human IL-22R (R&D Systems / …). Put plainly: SPR (Biacore), mAb on chip, monomeric hIL22R injected, 1:1 Langmuir. How it is done: Because of the potential avidity effect observed when a bivalent molecule is used as a ligand during affinity measurement, a reverse experimental setup was tested. In this set-up, the antibodies were coated to 250RU using standard methods. Monomeric human IL22R was added at different concentrations, and the affinities calculated using the BIAevaluation software using a Langmuir 1:1 fitting are shown in Table 21 below.

Test [12] has the same target. Put plainly: off-rate of Fab fragment; method not stated; Fab fragment; human IL-22R1.
In test [13] the target is T5, rhIL22R-Fc (rhesus IL22R ECD fused to human Fc) (rhesus monkey, UniProt G7MHN4 16-228).
T5 construct: also called rhesus IL-22R1
T5 sequence: T4 sequence with S18N, L73H, S99N, T105A, S115P, K167E, A194S, E196K, K205R
Description: off-rate of Fab fragment; method not stated.

In test [14] the target is T1, recombinant mouse IL22R (monomeric, R&D …). Put plainly: SPR (Biacore), purified Fab.
Test [15] concerns the target T4, recombinant human IL-22R (R&D Systems / …). Description: SPR (Biacore), purified Fab.
Test [16] shares this target. Description: SPR (Biacore), hIL22R on CM5 chip, mAb injected; rounded range told of 223G5 and 224C4. The method, then:
as §1

Test [17] addresses T6, human IL-22R A209D mutant on BW cells (human, UniProt Q8N6P7 16-574).
T6 sequence: T2 sequence with A194D
Put plainly: FACS, BW-hIL-22R mutant cells. How it is done:
The binding of IL22R antibodies and of the benchmark antibody (280.346.TSY) to BW cells over-expressing various IL22R mutants was tested. The IL22R mutants have mutations of amino acids known to be involved in the IL-22/IL22R interaction. In this setup, the antibodies were biotinylated, added to the cells and binding of the antibody to IL22R was detected with labeled streptavidin by Flow cytometry (FACS).
FACS analysis was also carried out as described in Example 8.2 to study the binding of the germlined antibodies to various IL-22R mutants.
A general note: Flow cytometry measures light scatter and fluorescence of single cells or particles in a stream.

Positions count from the first letter of the chain named. In names and notes the source's numbering stands.

B1: 218A7 mAb (antibody, V domains shown)
VH: QVQLVESGGGLVQPGGSLRLSCAASGFTFSSYDMSWVRQAPGKGLEWVSSIYNDGSNTAYSDSVKGRFTISRDNAKNTLYLQMNSLKSEDTAVYYCAKVGFSGTYYSESWGQGTQVTVSS
VL: LPVLTQPSAVSVSLGQTARITCQGGYYAHWYQQKPGQAPVLVIYGQNNRPSGIPERFSGSGAGNTATLTISGAQAEDEAEYYCQSGSSSANAVFGGGTKLTVL
notes: VH family 4; light chain shuffled variant of 157A2, not germlined
Take B1: the binding result in test [1] is recorded as “no binding”. The “IC50 blocking IL-22 (pM), BW hIL22R proliferation” value in [2] came out at 360 pM. For the same molecule, in [3], the “IC50 blocking IL-22 (nM), BWhIL22R cell line” value was determined as 0.28 nM and the “Relative potency to 280.346.TSY (IL-22, BWhIL22R cell line)” value worked out at 2.5 fold.

B2: 230C9 mAb (antibody, human IgG1, lambda, N297Q, V domains shown)
VH: B1 VH with S35N, G55A, A75S, K87R, S88A, Q115L
VL: SYELTQPSSVSVALGQTARITCQGGYYAHWYQQKPGQAPVLVIYGQNNRPSGIPERFSGSGAGNTATLTISRAQAEDEADYYCQSGSSSSNAVFGGGTKLTVLG
notes: Germlined variant of 218A7; also called 230C9-N297Q; 230C9 N297Q
Take B2: in [4], the “IC50 blocking IL-20 (nM), Baf3hIL22R/IL20Rb cell line; batch #1” value was 0.781 nM; the “IC50 blocking IL-20 (nM), Baf3hIL22R/IL20Rb cell line; batch #2” value was determined as 0.567 nM; the “Relative potency to 280.346.TSY (IL-20); batch #1” value came out at 1.9 fold; the “Relative potency to 280.346.TSY (IL-20); batch #2” value came out at 2.6 fold. In test [3], the “IC50 blocking IL-22 (nM), BWhIL22R cell line” value came to 0.56 nM and the “Relative potency to 280.346.TSY (IL-22, BWhIL22R cell line)” value came out at 1.2 fold. Further, in test [5], the “EC50, inhibition of CCL2 levels in primary human keratinocytes stimulated with IL-4, IL-13, IL-22 and IFN-gamma” value turned out to be 0.1 nM; the “EC50, reduction of rhIL-22 induced DEFB4 mRNA in human ex vivo skin explants” value was determined as 4 nM. In [6], the “EC50, block of rhIL-22 down-regulation of FLG2 and LOR mRNA in cynomolgus skin biopsies” value came out at 11 nM. Also, in test [7], the Kd was found to be 0.13 nM, the koff turned out to be 8.9e-05 s⁻¹ and the kon came to 680000 M⁻¹ s⁻¹. Further, in test [8], the “EC50 (nM), STAT3-reporter in HEK cells after human IL22, Cyno ECD” value is 0.57 nM. In test [9], the “EC50 (nM), STAT3-reporter in HEK cells after human IL22, Human ECD” value is 0.28 nM. In test [10], the “EC50 (nM), STAT3-reporter in HEK cells after human IL22, Rhesus ECD” value came to 0.48 nM. Also, in test [11], the Kd worked out at 0.22 nM, the koff worked out at 0.00022 s⁻¹ and the kon was found to be 920000 M⁻¹ s⁻¹.

B3: 166G8 Fab (Fab, V domains shown)
VH: QVQLVESGGGLVQPGDSLRLSCAASGFTFGSYFMSWVRQAPGKGPEWVSGIHISGGITYYLDSVKGRFTISRDNAKNTLYLQMNNLKPEDTAVYYCVTPPGPFKAHYNGMKYWGKGTLVTVSS
VL: NFMLTQPPSVSGTLGKTVTISCTGTSRDIGDYNYVSWYQQLPGLAPKLLIYKVNTRSSGTPDRFSGSKSGNTASLTISGLQSEDEADYYCASYRLYADYVFGGGTHLTVL
notes: VH family 5; purified llama Fab
For B3, the koff in test [12] was determined as 0.00122 s⁻¹; in test [13] it was 0.0222 s⁻¹; in [15], 0.00088 s⁻¹. For the same molecule, the binding result in [14] is reported as “no binding”.

B4: 223G5 mAb (antibody, human IgG1, lambda, N297Q, V domains shown)
VH: B3 VH with D16G, G30S, L61T, N85S, K87R, P88A, M110A
VL: QSALTQPPSVSGSPGQSVTISCTGTSSDIGSYNYVSWYQQLPGKAPKLLIYEVNKRSSGVPDRFSGSKSGNTASLTISGLQAEDEADYYCASYRLYADYVFGGGTQLTVLG
notes: Germlined variant of 166G8; also called 223G5-N297Q
With B4, the Kd in [16] lay within 0.01 to 0.02 nM. In addition, the binding result in test [17] is “no binding”. Further, in test [7], the dissociation constant Kd is 0.016 nM, the koff stood at 0.0001 s⁻¹ and the kon was 6.6e+06 M⁻¹ s⁻¹.

For orientation: Kd means the constant that tells how readily two partners part at equilibrium. Broadly, the koff is the rate constant with which the complex falls apart. What is called kon is the second-order rate constant of association.
